This note sets out measurements from paper PMC12655336, “Study on the High-Efficiency Expression of Horseradish Peroxidase in Pichia pastoris” (Molecules, 2025).

Substrate in data set [1]: COc1ccccc1O
In words: purified protein. Conditions: 1 mM H2O2, 37 °C, 436 nm.

Substrate in data set [2]: CCn1c(=NN=c2sc3cc(S(=O)(=O)O)ccc3n2CC)sc2cc(S(=O)(=O)O)ccc21
In words: spectrophotometric oxidation, Michaelis-Menten fit. Format: biochemical, Armoracia rusticana. Conditions: 1 mM H2O2, 37 °C, 415 nm, deglycosylated enzyme. From the text: (§1) spectrophotometric oxidation, Michaelis-Menten fit on Degly-HRP

Substrate in data set [3]: Cc1cc(-c2cc(C)c(N)c(C)c2)cc(C)c1N
In words: spectrophotometric oxidation, Michaelis-Menten fit. Format: biochemical, Armoracia rusticana. Conditions: 1 mM H2O2, 37 °C, 450 nm, deglycosylated enzyme.
From the text: as §1

Substrate in data set [4]: Nc1ccccc1N
Nature of the data set: spectrophotometric oxidation, Michaelis-Menten fit. Format: biochemical, Armoracia rusticana. Conditions: 1 mM H2O2, 37 °C, 492 nm, deglycosylated enzyme.
From the text: as §1

Substrate in data set [5]: CCn1c(=NN=c2sc3cc(S(=O)(=O)O)ccc3n2CC)sc2cc(S(=O)(=O)O)ccc21
In words: spectrophotometric oxidation, Michaelis-Menten fit. Conditions: 1 mM H2O2, 37 °C, 415 nm, glycosylated enzyme. The class given is biochemical, Armoracia rusticana. From the text:
(§2) spectrophotometric oxidation, Michaelis-Menten fit on HRP-C (W-HRP)

Substrate in data set [6]: Nc1ccccc1N
In words: spectrophotometric oxidation, Michaelis-Menten fit. Conditions: 1 mM H2O2, 37 °C, 492 nm, glycosylated enzyme. The class given is biochemical, Armoracia rusticana.
From the text: as §2

B1: Degly-HRP (Armoracia rusticana) (protein)
chain: QLTPTFYDNSCPNVSNIVRDTIVNELRSDPRIAASILRLHFHDCFVNGCDASILLDNTTSFRTEKDAFGNANSARGFPVIDRMKAAVESACPRTVSCADLLTIAAQQSVTLAGGPSWRVPLGRRDSLQAFLDLANANLPAPFFTLPQLKDSFRNVGLNRSSDLVALSGGHTFGKNQCRFIMDRLYNFSNTGLPDPTLNTTYLQTLRGLCPLNGNLSALVDFDLRTPTIFDNKYYVNLEEQKGLIQSDQELFSSPNATDTIPLVRSFANSTQTFFNAFVEAMDRMGNITPLTGTQGQIRLNCRVVNSNS
notes: same HRP-C from Pichia pastoris GS115, His-tagged, Ni-NTA purified; deglycosylated with EndoH (O-glycans may remain)
For B1, the Km in data set [1] (deglycosylated enzyme) came to 20.59 µM; in data set [2], 45.35 µM; in data set [3], 96 µM; in data set [4], 41 µM. Also, the kcat in data set [1] (deglycosylated enzyme) worked out at 270 s⁻¹; in data set [2], 238 s⁻¹; in data set [3] it was 238 s⁻¹; in data set [4] it was 745 s⁻¹.

B2: HRP-C (W-HRP) (Armoracia rusticana) (protein)
chain: QLTPTFYDNSCPNVSNIVRDTIVNELRSDPRIAASILRLHFHDCFVNGCDASILLDNTTSFRTEKDAFGNANSARGFPVIDRMKAAVESACPRTVSCADLLTIAAQQSVTLAGGPSWRVPLGRRDSLQAFLDLANANLPAPFFTLPQLKDSFRNVGLNRSSDLVALSGGHTFGKNQCRFIMDRLYNFSNTGLPDPTLNTTYLQTLRGLCPLNGNLSALVDFDLRTPTIFDNKYYVNLEEQKGLIQSDQELFSSPNATDTIPLVRSFANSTQTFFNAFVEAMDRMGNITPLTGTQGQIRLNCRVVNSNS
notes: codon-optimised synthetic HRP-C gene, secreted from Pichia pastoris GS115 with MF4I signal peptide, His-tagged, Ni-NTA purified; glycosylated (not EndoH treated)
Take B2: the kcat is 291 s⁻¹ in data set [1] (glycosylated enzyme), 267 s⁻¹ in data set [5] and 747 s⁻¹ in data set [6]. Further, the Km is 48.55 µM in data set [5] and 36 µM in data set [6].
